Reference: publication PMC9579051

Biological target: PSI–LHCI as found in the chloroplast PSI–LHCI dimer (one monomer unit, without PsaH, PsaO and Lhca2) (Chlamydomonas reinhardtii) (UniProt P12154)
Assay: cryo-EM structure; heavier green band of the sucrose gradient of affinity-purified PSI cross-linked with activated Pc; 1 mg chlorophyll/ml, vitrified at 4 °C; dimer refined with C2 symmetry, monomer with C1, focused classification on the Pc region

**Q.** How did the stoichiometry N turn out when “PSI–LHCI as found in the chloroplast PSI–LHCI dimer (one monomer unit, without PsaH, PsaO and Lhca2) (from UniProt P12154 1-751; P09144 1-735; Q39615 36-196; P12352 25-97; P12356 63-227; P14224 31-126; P14225 27-113) (complex)” was run?
**A.** 2
